We go through 3 molecules from patent publication US20040254354A1 (INHIBITEX, published 2004).

Sequences and labels used below:
T1: human fibrinogen (human, UniProt P02671 20-629; P02675 31-491; P02679 27-437)
T1 construct: Bought (Chromogenix for ELISA and blots; Calbiochem, plasminogen free, for clumping assays); The plate adherence paragraphs say only 'fibrinogen'; also called solid phase fibrinogen; immobilized fibrinogen
T1 sequence 1: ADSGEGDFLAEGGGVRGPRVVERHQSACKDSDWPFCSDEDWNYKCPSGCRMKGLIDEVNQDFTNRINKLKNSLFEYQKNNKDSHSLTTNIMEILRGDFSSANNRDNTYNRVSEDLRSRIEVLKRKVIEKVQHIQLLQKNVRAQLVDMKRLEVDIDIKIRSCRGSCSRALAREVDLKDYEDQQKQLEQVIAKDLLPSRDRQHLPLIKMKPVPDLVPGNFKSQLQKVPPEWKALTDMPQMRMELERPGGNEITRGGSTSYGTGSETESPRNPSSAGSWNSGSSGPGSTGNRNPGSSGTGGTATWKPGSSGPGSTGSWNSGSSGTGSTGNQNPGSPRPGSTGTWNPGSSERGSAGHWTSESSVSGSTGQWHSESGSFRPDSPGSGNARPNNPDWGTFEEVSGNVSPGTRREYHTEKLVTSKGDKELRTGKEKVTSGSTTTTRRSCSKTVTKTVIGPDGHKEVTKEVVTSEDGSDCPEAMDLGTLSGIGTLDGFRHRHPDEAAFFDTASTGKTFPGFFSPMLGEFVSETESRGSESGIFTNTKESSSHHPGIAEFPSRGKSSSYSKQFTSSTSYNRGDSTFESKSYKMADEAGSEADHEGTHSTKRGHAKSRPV
T1 sequence 2: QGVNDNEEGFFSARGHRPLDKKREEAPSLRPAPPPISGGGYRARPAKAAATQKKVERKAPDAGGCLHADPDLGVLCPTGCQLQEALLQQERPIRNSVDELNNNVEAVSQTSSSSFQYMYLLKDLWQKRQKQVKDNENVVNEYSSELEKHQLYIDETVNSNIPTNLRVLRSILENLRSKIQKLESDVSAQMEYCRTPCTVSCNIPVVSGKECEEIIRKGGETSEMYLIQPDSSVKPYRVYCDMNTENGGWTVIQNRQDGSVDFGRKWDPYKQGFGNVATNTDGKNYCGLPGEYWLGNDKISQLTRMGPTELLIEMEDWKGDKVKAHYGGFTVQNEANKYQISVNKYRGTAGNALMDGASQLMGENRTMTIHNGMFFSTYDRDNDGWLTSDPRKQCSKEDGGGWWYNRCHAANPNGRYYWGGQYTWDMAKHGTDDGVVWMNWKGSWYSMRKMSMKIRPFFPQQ
T1 sequence 3: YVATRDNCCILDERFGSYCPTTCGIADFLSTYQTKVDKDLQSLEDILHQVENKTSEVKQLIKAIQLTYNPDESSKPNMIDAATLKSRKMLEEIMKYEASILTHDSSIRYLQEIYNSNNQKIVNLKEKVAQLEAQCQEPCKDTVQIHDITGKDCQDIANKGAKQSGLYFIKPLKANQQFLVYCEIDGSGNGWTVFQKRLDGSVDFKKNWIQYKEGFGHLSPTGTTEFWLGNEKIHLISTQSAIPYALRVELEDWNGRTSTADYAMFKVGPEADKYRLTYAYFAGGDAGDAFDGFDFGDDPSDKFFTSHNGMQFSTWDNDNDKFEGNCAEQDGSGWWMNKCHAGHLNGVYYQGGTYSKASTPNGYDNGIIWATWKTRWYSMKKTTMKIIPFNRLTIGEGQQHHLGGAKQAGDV

B1: biotinylated recombinant region A from ClfA (other)
chain: SENSVTQSDSASNESKSNDSSSVSAAPKTDDTNVSDTKTSSNTNNGETSVAQNPAQQETTQSSSTNATTEETPVTGEATTTTTNQANTPATTQSSNTNAEELVNQTSNETTFNDTNTVSSVNSPQNSTNAENVSTTQDTSTEATPSNNESAPQSTDASNKDVVNQAVNTSAPRMRAFSLAAVAADAPAAGTDITNQLTNVTVGIDSGTTVYPHQAGYVKLNYGFSVPNSAVKGDTFKITVPKELNLNGVTSTAKVPPIMAGDQVLANGVIDSDGNVIYTFTDYVNTKDDVKATLTMPAYIDPENVKKTGNVTLATGIGSTTANKTVLVDYEKYGKFYNLSIKGTIDQIDKTNNTYRQTIYVNPSGDNVIAPVLTGNLKPNTDSNALIDQQNTSIKVYKVDNAADLSESYFVNPENFEDVTNSVNITFPNPNQYKVEFNTPDDQITTPYIVVVNGHIDPNSKGDLALRSTLYGYNSNIIWRSMSWDNEVAFNNGSGSGDGIDKPVVPEQPDEPGEIEPIPE
modifications: biotinylated (sites not given)
notes: domain: region A; also called ClfA region A; biotinylated ClfA
B2: γ chain of human fibrinogen (ligand)
chain: T1 sequence 3
notes: also called gamma-chain of fibrinogen; y chain of fibrinogen

The target of assay [1] is human fibrinogen (human) (UniProt P02671). In words: cell-based or functional assay.
Assay [2] concerns the target T2, bovine serum albumin (bovine, UniProt P02769 25-607).
T2 construct: also called BSA
As to the kind of experiment: direct ELISA, biotinylated region A on BSA-coated plates.

In assay [3] the target is T1, human fibrinogen. As to the kind of experiment: direct ELISA, biotinylated region A on fibrinogen-coated plates. For orientation: In an ELISA, binding on a coated surface is turned into a signal by an enzyme label.
Assay [4] has as its target B1. In words: Western affinity blot of human fibrinogen (FIG. 22).

T2 sequence (P02769 25-607 limits assumed): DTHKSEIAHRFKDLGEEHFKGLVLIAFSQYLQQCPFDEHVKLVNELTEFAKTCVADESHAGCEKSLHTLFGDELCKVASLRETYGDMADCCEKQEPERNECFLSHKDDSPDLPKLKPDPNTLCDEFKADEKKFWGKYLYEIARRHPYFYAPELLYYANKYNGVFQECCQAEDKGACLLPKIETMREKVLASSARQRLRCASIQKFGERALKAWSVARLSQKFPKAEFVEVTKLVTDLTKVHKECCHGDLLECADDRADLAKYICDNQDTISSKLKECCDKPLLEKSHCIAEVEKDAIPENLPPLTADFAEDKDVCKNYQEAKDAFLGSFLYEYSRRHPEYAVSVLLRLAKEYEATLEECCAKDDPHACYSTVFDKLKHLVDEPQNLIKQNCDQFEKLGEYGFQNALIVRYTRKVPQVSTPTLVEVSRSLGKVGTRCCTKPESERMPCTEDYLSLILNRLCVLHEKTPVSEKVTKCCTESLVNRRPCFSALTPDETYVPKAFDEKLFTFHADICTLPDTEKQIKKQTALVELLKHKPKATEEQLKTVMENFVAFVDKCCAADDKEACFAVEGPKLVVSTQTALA

In assay [1], “ClfA (native, on S. aureus Newman cells) (from UniProt Q53653 40-899)” displayed a Clumping titer, µg/ml fibrinogen; clfB mutant, exponential phase (µg/ml fibrinogen) of 1.95; a Clumping titer, µg/ml fibrinogen; clfB mutant, stationary phase (µg/ml fibrinogen) of 0.98; a Clumping titer, µg/ml fibrinogen; wild-type, stationary phase (µg/ml fibrinogen) of 0.98.

Take B1: the binding result in assay [2] was “no binding”. For the same molecule, the “binding at the highest concentration, relative to ClfB region A” value in assay [3] was around 50 % greater than ClfB.

Regarding B2, the binding result in assay [4] was “binds”.
